Measured values as given in patent publication US20040146507A1 (Genentech, published 2004).

B1: HuIgG1 mutant AspH54Glu (antibody, V domains shown)
VH: EVQLVESGGGLVQPGGSLRLSCAASGYSFTGHWMNWVRQAPGKGLEWVGMIHPSESETRYNQKFKDRFTISVDKSKNTLYLQMNSLRAEDTAVYYCARGIYFYGTTYFDYWGQGTLVTVSS
VL: DIQMTQSPSSLSASVGDRVTITCRASKTISKYLAWYQQKPGKAPKLLIYSGSTLQSGVPSRFSGSGSGTDFTLTISSLQPEDFATYYCQQHNEYPLTFGQGTKVEIK
notes: HuIgG1 mutant, human IgG1; Kabat numbering; also called AspH54 change to Glu
B2: HuIgG1 mutant AspH54Lys (antibody, V domains shown)
VH: EVQLVESGGGLVQPGGSLRLSCAASGYSFTGHWMNWVRQAPGKGLEWVGMIHPSKSETRYNQKFKDRFTISVDKSKNTLYLQMNSLRAEDTAVYYCARGIYFYGTTYFDYWGQGTLVTVSS
VL: DIQMTQSPSSLSASVGDRVTITCRASKTISKYLAWYQQKPGKAPKLLIYSGSTLQSGVPSRFSGSGSGTDFTLTISSLQPEDFATYYCQQHNEYPLTFGQGTKVEIK
notes: HuIgG1 mutant, human IgG1; Kabat numbering; also called AspH54 change to Lys
B3: HuIgG1 mutant AspH54Ser (antibody, V domains shown)
VH: EVQLVESGGGLVQPGGSLRLSCAASGYSFTGHWMNWVRQAPGKGLEWVGMIHPSSSETRYNQKFKDRFTISVDKSKNTLYLQMNSLRAEDTAVYYCARGIYFYGTTYFDYWGQGTLVTVSS
VL: DIQMTQSPSSLSASVGDRVTITCRASKTISKYLAWYQQKPGKAPKLLIYSGSTLQSGVPSRFSGSGSGTDFTLTISSLQPEDFATYYCQQHNEYPLTFGQGTKVEIK
notes: HuIgG1 mutant, human IgG1; Kabat numbering; also called AspH54 change to Ser
B4: HuIgG1 mutant GluH56Ala (antibody, V domains shown)
VH: EVQLVESGGGLVQPGGSLRLSCAASGYSFTGHWMNWVRQAPGKGLEWVGMIHPSDSATRYNQKFKDRFTISVDKSKNTLYLQMNSLRAEDTAVYYCARGIYFYGTTYFDYWGQGTLVTVSS
VL: DIQMTQSPSSLSASVGDRVTITCRASKTISKYLAWYQQKPGKAPKLLIYSGSTLQSGVPSRFSGSGSGTDFTLTISSLQPEDFATYYCQQHNEYPLTFGQGTKVEIK
notes: HuIgG1 mutant, human IgG1; Kabat numbering
B5: HuIgG1 mutant H2 (antibody, V domains shown)
VH: EVQLVESGGGLVQPGGSLRLSCAASGYSFTGHWMNWVRQAPGKGLEWVGMIAPADAETRYNQKFKDRFTISVDKSKNTLYLQMNSLRAEDTAVYYCARGIYFYGTTYFDYWGQGTLVTVSS
VL: DIQMTQSPSSLSASVGDRVTITCRASKTISKYLAWYQQKPGKAPKLLIYSGSTLQSGVPSRFSGSGSGTDFTLTISSLQPEDFATYYCQQHNEYPLTFGQGTKVEIK
notes: as for B4
B6: HuIgG1 mutant SerH55Ala (antibody, V domains shown)
VH: EVQLVESGGGLVQPGGSLRLSCAASGYSFTGHWMNWVRQAPGKGLEWVGMIHPSDAETRYNQKFKDRFTISVDKSKNTLYLQMNSLRAEDTAVYYCARGIYFYGTTYFDYWGQGTLVTVSS
VL: DIQMTQSPSSLSASVGDRVTITCRASKTISKYLAWYQQKPGKAPKLLIYSGSTLQSGVPSRFSGSGSGTDFTLTISSLQPEDFATYYCQQHNEYPLTFGQGTKVEIK
notes: as for B4
B7: HuIgG1 mutant SerH55Gln (antibody, V domains shown)
VH: EVQLVESGGGLVQPGGSLRLSCAASGYSFTGHWMNWVRQAPGKGLEWVGMIHPSDQETRYNQKFKDRFTISVDKSKNTLYLQMNSLRAEDTAVYYCARGIYFYGTTYFDYWGQGTLVTVSS
VL: DIQMTQSPSSLSASVGDRVTITCRASKTISKYLAWYQQKPGKAPKLLIYSGSTLQSGVPSRFSGSGSGTDFTLTISSLQPEDFATYYCQQHNEYPLTFGQGTKVEIK
notes: as for B4
B8: HuIgG1 mutant ThrH30Ala (antibody, V domains shown)
VH: EVQLVESGGGLVQPGGSLRLSCAASGYSFAGHWMNWVRQAPGKGLEWVGMIHPSDSETRYNQKFKDRFTISVDKSKNTLYLQMNSLRAEDTAVYYCARGIYFYGTTYFDYWGQGTLVTVSS
VL: DIQMTQSPSSLSASVGDRVTITCRASKTISKYLAWYQQKPGKAPKLLIYSGSTLQSGVPSRFSGSGSGTDFTLTISSLQPEDFATYYCQQHNEYPLTFGQGTKVEIK
notes: as for B4
B9: humanized MHM24 F(ab)-2 (Fab, V domains shown)
VH: EVQLVESGGGLVQPGGSLRLSCAASGFSFTGHWMNWVRQAPGKGLEWVGMIHPSDSETRYNQKFKDRFTISVDNSKNTLYLQMNSLRAEDTAVYYCARGIYFYGTTYFDYWGQGTLVTVSS
VL: DIQMTQSPSSLSASVGDRVTITCRASKTISKYLAWYQQKPGKAPKLLIYSGSSLESGVPSRFSGSGSGTDFTLTISSLQPEDFATYYCQQHNEYPLTFGQGTKVEIK
notes: F(ab) from E. coli
B10: humanized MHM24 F(ab)-3 (Fab, V domains shown)
VH: EVQLVESGGGLVQPGGSLRLSCAASGFSFTGHWMNWVRQAPGKGLEWVGMIHPSDSETRYNQKFKDRATISVDNSKNTLYLQMNSLRAEDTAVYYCARGIYFYGTTYFDYWGQGTLVTVSS
VL: DIQMTQSPSSLSASVGDRVTITCRASKTISKYLAWYQQKPGKAPKLLIYSGSSLESGVPSRFSGSGSGTDFTLTISSLQPEDFATYYCQQHNEYPLTFGQGTKVEIK
notes: F(ab) from E. coli; F(ab)-2 plus PheH67Ala
B11: humanized MHM24 F(ab)-4 (Fab, V domains shown)
VH: EVQLVESGGGLVQPGGSLRLSCAASGFSFTGHWMNWVRQAPGKGLEWVGMIHPSDSETRYNQKFKDRFTISRDNSKNTLYLQMNSLRAEDTAVYYCARGIYFYGTTYFDYWGQGTLVTVSS
VL: DIQMTQSPSSLSASVGDRVTITCRASKTISKYLAWYQQKPGKAPKLLIYSGSSLESGVPSRFSGSGSGTDFTLTISSLQPEDFATYYCQQHNEYPLTFGQGTKVEIK
notes: F(ab) from E. coli; F(ab)-2 plus ValH71Arg
B12: humanized MHM24 F(ab)-5 (Fab, V domains shown)
VH: EVQLVESGGGLVQPGGSLRLSCAASGFSFTGHWMNWVRQAPGKGLEWVGMIHPSDSETRYNQKFKDRFTISVDKSSSTLYLQMNSLRAEDTAVYYCARGIYFYGTTYFDYWGQGTLVTVSS
VL: DIQMTQSPSSLSASVGDRVTITCRASKTISKYLAWYQQKPGKAPKLLIYSGSSLESGVPSRFSGSGSGTDFTLTISSLQPEDFATYYCQQHNEYPLTFGQGTKVEIK
notes: F(ab) from E. coli
B13: humanized MHM24 F(ab)-6 (Fab, V domains shown)
VH: EVQLVESGGGLVQPGGSLRLSCAASGFSFTGHWMNWVRQAPGKGLEWVGMIHPSDSETRYNQKFKDRFTISVDKSSSTLYLQMNSLRAEDTAVYYCARGIYFYGTTYFDYWGQGTLVTVSS
VL: DIQMTQSPSSLSASVGDRVTITCRASKTISKYLAWYQQKPGKAPKLLIYSGSTLQSGVPSRFSGSGSGTDFTLTISSLQPEDFATYYCQQHNEYPLTFGQGTKVEIK
notes: F(ab) from E. coli
B14: humanized MHM24 F(ab)-7 (Fab, V domains shown)
VH: EVQLVESGGGLVQPGGSLRLSCAASGYSFTGHWMNWVRQAPGKGLEWVGMIHPSDSETRYNQKFKDRFTISVDKSSSTLYLQMNSLRAEDTAVYYCARGIYFYGTTYFDYWGQGTLVTVSS
VL: DIQMTQSPSSLSASVGDRVTITCRASKTISKYLAWYQQKPGKAPKLLIYSGSTLQSGVPSRFSGSGSGTDFTLTISSLQPEDFATYYCQQHNEYPLTFGQGTKVEIK
notes: F(ab) from E. coli
B15: humanized MHM24 F(ab)-8 (Fab, V domains shown)
VH: EVQLVESGGGLVQPGGSLRLSCAASGYSFTGHWMNWVRQAPGKGLEWVGMIHPSDSETRYNQKFKDRFTISVDKSKNTLYLQMNSLRAEDTAVYYCARGIYFYGTTYFDYWGQGTLVTVSS
VL: DIQMTQSPSSLSASVGDRVTITCRASKTISKYLAWYQQKPGKAPKLLIYSGSTLQSGVPSRFSGSGSGTDFTLTISSLQPEDFATYYCQQHNEYPLTFGQGTKVEIKR
notes: F(ab) from E. coli with human kappa CL and CH1

Experiments:
human CD11a [1] = molecular target: T1, human CD11a (human, UniProt P20701 26-1170); experiment: FACScan, Jurkat cells
T1 construct: whole, on cells; On Jurkat T-cells or human peripheral blood mononuclear cells, as part of LFA-1; also called CD11a on Jurkat cells; alpha subunit of LFA-1
Method: (§1) Aliquots of 10⁶ Jurkat T-cells were incubated with serial dilutions of humanized and control antibodies in PBS-0.1% BSA-10 mM sodium azide for 45 min at 4° C. The cells were washed and then incubated in fluorescein-conjugated goat anti-human F(ab′)₂ (Organon Teknika, Westchester, Pa.) for 45 min at 4° C. Cells were washed and analysed on a FACScan (Becton Dickinson, Mountain View, Calif.). 8×10³ cells were acquired by list mode and gated by forward light scatter versus side light scatter, thereby excluding dead cells and debris.

rhesus CD11a [2] = molecular target: T2, rhesus CD11a (rhesus, UniProt H9Z8N3 26-1169); experiment: rhesus PBL binding
T2 construct: whole, on cells; On rhesus peripheral blood lymphocytes or leukocytes; also called rhCD11a
T2 sequence: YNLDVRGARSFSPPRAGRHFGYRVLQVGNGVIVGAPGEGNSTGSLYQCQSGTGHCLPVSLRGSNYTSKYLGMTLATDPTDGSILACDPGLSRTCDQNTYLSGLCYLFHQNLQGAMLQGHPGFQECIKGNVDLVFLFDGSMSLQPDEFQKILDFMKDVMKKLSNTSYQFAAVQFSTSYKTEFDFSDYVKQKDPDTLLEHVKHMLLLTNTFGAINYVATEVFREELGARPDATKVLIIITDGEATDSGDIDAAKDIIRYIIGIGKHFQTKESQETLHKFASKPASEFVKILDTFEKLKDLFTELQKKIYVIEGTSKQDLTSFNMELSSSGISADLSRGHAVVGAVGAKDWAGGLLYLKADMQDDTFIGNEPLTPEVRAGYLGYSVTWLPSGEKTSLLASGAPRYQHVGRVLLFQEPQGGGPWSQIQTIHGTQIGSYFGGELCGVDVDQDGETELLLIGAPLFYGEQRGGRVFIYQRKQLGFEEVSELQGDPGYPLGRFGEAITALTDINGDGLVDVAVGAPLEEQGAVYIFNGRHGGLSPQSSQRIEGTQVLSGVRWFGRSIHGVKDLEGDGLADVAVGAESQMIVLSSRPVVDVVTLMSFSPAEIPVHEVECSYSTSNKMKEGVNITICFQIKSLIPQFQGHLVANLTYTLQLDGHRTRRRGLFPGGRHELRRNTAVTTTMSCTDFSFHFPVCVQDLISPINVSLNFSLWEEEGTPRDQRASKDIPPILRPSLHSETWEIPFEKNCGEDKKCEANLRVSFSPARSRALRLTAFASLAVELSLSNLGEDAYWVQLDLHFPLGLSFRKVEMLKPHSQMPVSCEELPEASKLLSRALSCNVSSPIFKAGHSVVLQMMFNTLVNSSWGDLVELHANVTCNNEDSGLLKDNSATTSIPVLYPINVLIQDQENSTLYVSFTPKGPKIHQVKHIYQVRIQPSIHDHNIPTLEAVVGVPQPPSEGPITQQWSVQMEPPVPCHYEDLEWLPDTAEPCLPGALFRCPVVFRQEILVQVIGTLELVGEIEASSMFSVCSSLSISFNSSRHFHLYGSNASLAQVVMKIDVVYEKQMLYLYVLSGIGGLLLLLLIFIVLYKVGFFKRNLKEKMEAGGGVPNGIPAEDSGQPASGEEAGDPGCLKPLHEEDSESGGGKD

rhesus CD11a [3] = molecular target: T2, rhesus CD11a; experiment: rhesus PBL binding; remark: listed apart in the source
rhesus CD11a [4] = molecular target: T2, rhesus CD11a; experiment: rhesus PBL binding; remark: listed apart in the source
human CD11a [5] = molecular target: T1, human CD11a; experiment: FACScan, Jurkat cells; remark: listed apart in the source
Method: as §1
Target sequence in this assay (P20701 26-1170): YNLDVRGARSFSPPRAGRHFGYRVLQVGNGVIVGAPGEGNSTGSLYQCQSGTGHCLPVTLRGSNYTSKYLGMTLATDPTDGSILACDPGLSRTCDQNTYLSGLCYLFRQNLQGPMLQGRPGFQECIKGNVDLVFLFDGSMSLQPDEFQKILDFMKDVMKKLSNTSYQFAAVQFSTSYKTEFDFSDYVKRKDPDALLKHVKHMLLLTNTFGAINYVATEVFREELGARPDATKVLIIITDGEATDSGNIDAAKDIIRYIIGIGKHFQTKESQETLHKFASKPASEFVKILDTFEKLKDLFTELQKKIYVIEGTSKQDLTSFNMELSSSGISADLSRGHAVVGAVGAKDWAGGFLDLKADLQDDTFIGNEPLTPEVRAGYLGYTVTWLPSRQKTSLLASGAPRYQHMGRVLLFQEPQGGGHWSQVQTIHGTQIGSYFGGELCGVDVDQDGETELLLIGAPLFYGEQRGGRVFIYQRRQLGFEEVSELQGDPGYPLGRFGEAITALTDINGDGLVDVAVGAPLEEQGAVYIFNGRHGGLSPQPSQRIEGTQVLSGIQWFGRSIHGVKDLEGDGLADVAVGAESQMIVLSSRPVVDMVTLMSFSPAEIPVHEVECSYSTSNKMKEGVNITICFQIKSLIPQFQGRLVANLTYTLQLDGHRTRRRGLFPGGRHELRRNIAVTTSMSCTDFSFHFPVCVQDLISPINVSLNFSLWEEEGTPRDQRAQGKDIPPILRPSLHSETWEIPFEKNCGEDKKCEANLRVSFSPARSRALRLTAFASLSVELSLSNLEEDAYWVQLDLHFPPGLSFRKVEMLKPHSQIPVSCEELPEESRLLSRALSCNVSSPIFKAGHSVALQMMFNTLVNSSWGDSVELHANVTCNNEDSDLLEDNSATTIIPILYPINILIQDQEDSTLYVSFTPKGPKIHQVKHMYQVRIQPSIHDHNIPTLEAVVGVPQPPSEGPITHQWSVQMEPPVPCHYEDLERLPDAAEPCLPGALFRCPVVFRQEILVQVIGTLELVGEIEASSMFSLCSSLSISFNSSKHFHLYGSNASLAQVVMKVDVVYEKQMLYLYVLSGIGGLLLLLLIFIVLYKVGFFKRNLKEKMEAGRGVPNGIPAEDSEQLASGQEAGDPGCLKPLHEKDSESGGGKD
To determine which CDR residues were involved in binding to human CD11a an alanine-scan (Cunningham et al., Science 244:1081 (1989)) was performed on the CDR residues of HuIgG1. Each mutant was tested for binding to CD11a on Jurkat cells. In the light chain only CDR-L3 contributes to binding.

Row | Binder | Var.EC50/HuIgG1 EC50 (rhesus CD11a [4]) | Var.EC50/HuIgG1 EC50 (human CD11a [5]) | EC50 F(ab)/EC50 F(ab)-2 (human CD11a [1]) | further results
1 | B1 |  |  |  | Mutant EC50/HuIgG1 EC50 (human CD11a [1]): 16 ratio
2 | B2 |  |  |  | Mutant EC50/HuIgG1 EC50 (rhesus CD11a [2]): 3.8 ratio
3 | B3 |  |  |  | Mutant EC50/HuIgG1 EC50 (rhesus CD11a [2]): 0.9 ratio
4 | B4 | 0.3 ratio | 4 ratio |  | fold improvement in binding over HuIgG1 (rhesus CD11a [3]): 3 fold
5 | B5 | 0.055 ratio | 14.1 ratio |  | fold better binding than HuIgG1 (rhesus CD11a [3]): 18 fold
6 | B6 | 1.3 ratio | 1.3 ratio |  | 
7 | B7 | 6.7 ratio | 2.9 ratio |  | 
8 | B8 | 1.3 ratio | 1.7 ratio |  | 
9 | B9 |  |  | 1 ratio | EC50 (human CD11a [1]): 0.771 µg/mL; fold weaker EC50 than chimeric IgG1 (human CD11a [1]): 148 fold
10 | B10 |  |  | 1.2 ratio | 
11 | B11 |  |  | 2.9 ratio | 
12 | B12 |  |  | 0.043 ratio | fold improvement in binding over F(ab)-2 (human CD11a [1]): 23 fold
13 | B13 |  |  | 0.012 ratio | fold improvement in binding over F(ab)-5 (human CD11a [1]): 4 fold
14 | B14 |  |  | 0.004 ratio | fold improvement in binding over F(ab)-6 (human CD11a [1]): 3 fold
15 | B15 |  |  | 0.004 ratio | 
